Reference: article PMC4650670 (Scientific Reports, 2015)

Biological target: human cytoskeletal actin, filamentous (F-actin; β- and γ-actins) (human, UniProt P60709 1-375; P63261 1-375)
Experiment: ITC
Details: both partners purified

B1: VopV_(rep1) (residues 361-428 of the type III secretion effector VopV) (domain or fragment)
chain: WPEVKPAHRLITTSGNAKIDGNPGYRNARVDVDGQTVGYTRNERGGSQPQSSGVHTLQGSQQPSVEPS
  Kd: 54.4 nM
